Measured values from paper PMC5992430, “C-Reactive Protein (CRP) and Leptin Receptor in Obesity: Binding of Monomeric CRP to Leptin Receptor” (Frontiers in Immunology, 2018).

Target: T1, Soluble recombinant human leptin receptor (human, UniProt P48357 22-839)
T1 construct: leptin receptor (Ob R), human, soluble recombinant form; PDB 3V6O (CRH2 domain) was used only for docking; also called recombinant leptin receptor; Ob R; source: bought: Thermo Fischer, USA (synthesized in Escherichia coli)
T1 sequence (looked up): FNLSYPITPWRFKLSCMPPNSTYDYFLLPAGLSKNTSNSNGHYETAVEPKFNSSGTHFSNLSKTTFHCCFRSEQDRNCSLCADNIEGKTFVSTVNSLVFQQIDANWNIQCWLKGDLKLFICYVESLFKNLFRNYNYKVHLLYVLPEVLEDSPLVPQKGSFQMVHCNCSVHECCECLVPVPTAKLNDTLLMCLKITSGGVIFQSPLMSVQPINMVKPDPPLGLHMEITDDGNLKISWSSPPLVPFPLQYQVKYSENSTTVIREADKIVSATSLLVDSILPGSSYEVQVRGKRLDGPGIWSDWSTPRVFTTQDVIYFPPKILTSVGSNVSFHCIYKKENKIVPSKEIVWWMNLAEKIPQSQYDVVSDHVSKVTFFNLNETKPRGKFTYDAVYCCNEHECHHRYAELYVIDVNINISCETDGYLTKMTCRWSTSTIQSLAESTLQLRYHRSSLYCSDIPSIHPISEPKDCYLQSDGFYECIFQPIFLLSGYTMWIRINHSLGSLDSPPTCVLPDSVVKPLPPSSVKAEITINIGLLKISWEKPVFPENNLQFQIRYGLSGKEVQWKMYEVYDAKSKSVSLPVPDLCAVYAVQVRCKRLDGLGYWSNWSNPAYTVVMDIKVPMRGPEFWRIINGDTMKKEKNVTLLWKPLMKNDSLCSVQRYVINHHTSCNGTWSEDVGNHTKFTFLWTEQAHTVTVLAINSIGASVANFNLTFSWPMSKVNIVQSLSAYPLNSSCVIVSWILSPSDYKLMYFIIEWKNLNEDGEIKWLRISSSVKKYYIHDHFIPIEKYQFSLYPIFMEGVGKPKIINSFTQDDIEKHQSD
Test: ELISA; solid phase binding assay; CRP forms or control proteins coated on a 96-well plate at 4°C overnight in Tris/HCl 0.05 M pH 7.4 (different concentrations, or 0.6 µg/ml for Figure 5B); blocked with 0.5% gelatin; leptin receptor 100 ng/ml in 50 µl PBS added for 1 h at RT; detected with anti-Ob R antibody and HRP anti-rabbit IgG
Details: both partners purified

B1: Monomeric CRP prepared from human serum CRP (natural protein, UniProt P02741 19-224, looked up)
chain: QTDMSRKAFVFPKESDTSYVSLKAPLTKPLKAFTVCLHFYTELSSTRGYSIFSYATKRQDNEILIFWSKDIGYSFTVGGSEILFEVPEVTVAPVHICTSWESASGIVEFWVDGKPRVRKSLKKGYTVGAEASIILGQEQDSFGGNFEGSQSLVGDIGNVNMWDFVLSPDEINTIYLGGPFSPNVLNWRALKYEVQGEVFTKPQLWP
notes: C-reactive protein, human, from serum; protomer of 206 amino acid residues as printed in the introduction; dissociated to the monomer with urea/EDTA; Same chain as native CRP, dissociated to monomers; also called s-mCRP; human mCRP; source: bought: Thermo Fischer, USA (human CRP); made monomeric with 8 M urea/10 mM EDTA at 37°C for 2 h
Kd: 10.2 nM
